Earlier results in publication PMC4546937.

Molecular target: IL-13Ralpha1 (Homo sapiens) (UniProt P78552)
Sequence of UniProt P78552 (P78552 22-343): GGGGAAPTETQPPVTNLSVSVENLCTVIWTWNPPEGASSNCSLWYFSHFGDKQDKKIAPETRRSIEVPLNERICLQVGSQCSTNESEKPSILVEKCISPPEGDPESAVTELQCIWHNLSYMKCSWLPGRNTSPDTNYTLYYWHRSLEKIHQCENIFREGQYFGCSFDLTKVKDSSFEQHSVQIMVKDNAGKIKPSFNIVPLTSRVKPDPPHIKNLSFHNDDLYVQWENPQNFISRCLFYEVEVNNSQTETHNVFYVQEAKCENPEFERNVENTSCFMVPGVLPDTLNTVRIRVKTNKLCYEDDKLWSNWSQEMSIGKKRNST

Kd: 0.03 µM
Substance: IL-13 (from UniProt P35225)
